Measurements: patent US20250066745A1, “MUTANTS AND USE THEREOF” (BGI SHENZHEN, priority 2021, published 2025)

Key:
Assay type in all cases: biochemical
Design in all cases: key to Activity of mutant relative to wild-type Gaussia luciferase without the signal peptide: ratio of mutant luminescence intensity to wild-type Gaussia luciferase
[1] = Luminescence activity assay of purified Gaussia luciferase mutants on coelenterazine derivative ZS2; conditions: Substrate ZS2 (Table 16)
Procedure, shortened: (§1)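 Readout: luminescence intensity, as ratio to signal-peptide-free wild-type enzyme. Enzyme 1 μg/mL, substrate 100 μM stock, 10 μL + 90 μL; buffer 50 mM Tris-HCl pH 8.0, 100 mM NaCl, 0.1% Tween-20.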

[2] = Luminescence activity assay of purified Gaussia luciferase mutants on fluoro-coelenterazine; conditions: Substrate f-CTZ (Table 16)
Protocol: In this Example, the protein concentration was determined with a BCA quantitative kit (Thermo Scientific™ Pierce™ BCA Protein Assay Kit) accurately. The purified luciferase obtained in Example 5 was diluted with diluent (50 mM Tris-HCl, pH 8.0, 100 mM NaCl, 0.1% (v/v) Tween-20) to 1 μg/mL. The diluted luciferase, taken for 10 μL, was moved into a black 96-well plate, then added with 90 μL of the substrates coelenterazine, fluoro-coelenterazine or coelenterazine derivative ZS2 (purchased from Biolab) which was diluted into 100 μM with the same diluent, and the luminescence intensity of the plate was read with a self-luminescence module of a microplate reader. The mutation site of the mutant, the measured luminescence intensity, the ratio of luminescence intensities of the advantageous mutants to the wild-type Gaussia luciferase without the signal peptide having the sequence shown in SEQ ID NO: 3 are shown in Table 15. The results of catalytic activity assay of the advantageous mutants relative to the wild-type Gaussia luciferase without the signal peptide having the sequence shown in SEQ ID NO: 3 on substrate coelenterazine are shown in FIG. 6. […] The results of catalytic activity assay of the advantageous mutants relative to the wild-type Gaussia luciferase without the signal peptide having the sequence shown in SEQ ID NO: 3 on substrate fluoro-coelenterazine are shown in FIG. 7.
The new mutant library constructed in Example 7 was screened and tested for substrate specificity. Expression and purification schemes were the same as that in Example 5, and the activity assay scheme was the same as that in Example 6. The respective catalytic activities of combinatorial mutants on coelenterazine, fluoro-coelenterazine or coelenterazine derivative ZS2, and coelenterazine derivative ZS26 (purchased from BIOLAB) were assayed, and comparisons among the substrate specificities of the combinatorial mutants were based on the ratios of catalytic activities on two corresponding substrates.

[3] = Luminescence activity assay of purified Gaussia luciferase mutants on coelenterazine; conditions: Substrate CTZ (Table 16)
Procedure, shortened: as §1

B1: A42G Q152C T167G S170T G174N K178S A182Y G183A: Gaussia luciferase mutant (protein)
chain: MGVKVLFALICIAVAEAKPTENNEDFNIVAVASNFATTDLDGDRGKLPGKKLPLEVLKEMEANARKAGCTRGCLICLSHIKCTPKMKKFIPGRCHTYEGDKESAQGGIGEAIVDIPEIPGFKDLEPMEQFIAQVDLCVDCTTGCLKGLANVCCSDLLKKWLPQRCAGFATKIQNQVDSIKGYAGD
modifications: SIGNAL (1)..(17)
notes: Gaussia luciferase mutant
With B1 the “Activity of mutant relative to wild-type Gaussia luciferase without the signal peptide” value [1] was 1.065, the “Activity of mutant relative to wild-type Gaussia luciferase without the signal peptide” value [2] was 0.520 and the “Activity of mutant relative to wild-type Gaussia luciferase without the signal peptide” value [3] was 2.527.

B2: H79K P84L S103T A104G E110A: Gaussia luciferase mutant (protein)
chain: MGVKVLFALICIAVAEAKPTENNEDFNIVAVASNFATTDLDADRGKLPGKKLPLEVLKEMEANARKAGCTRGCLICLSKIKCTLKMKKFIPGRCHTYEGDKETGQGGIGAAIVDIPEIPGFKDLEPMEQFIAQVDLCVDCTTGCLKGLANVQCSDLLKKWLPQRCATFASKIQGQVDKIKGAGGD
modifications: SIGNAL (1)..(17)
notes: Gaussia luciferase mutant
For B2, the “Activity of mutant relative to wild-type Gaussia luciferase without the signal peptide” value [1] was 0.064, the “Activity of mutant relative to wild-type Gaussia luciferase without the signal peptide” value [2] was 13.108 and the “Activity of mutant relative to wild-type Gaussia luciferase without the signal peptide” value [3] was 1.921.

B3: K66N P84A E102K S103I E110G L124M V138E: Gaussia luciferase mutant (protein)
chain: MGVKVLFALICIAVAEAKPTENNEDFNIVAVASNFATTDLDADRGKLPGKKLPLEVLKEMEANARNAGCTRGCLICLSHIKCTAKMKKFIPGRCHTYEGDKKIAQGGIGGAIVDIPEIPGFKDMEPMEQFIAQVDLCEDCTTGCLKGLANVQCSDLLKKWLPQRCATFASKIQGQVDKIKGAGGD
modifications: SIGNAL (1)..(17)
notes: Gaussia luciferase mutant
For B3, the “Activity of mutant relative to wild-type Gaussia luciferase without the signal peptide” value [1] was 0.620, the “Activity of mutant relative to wild-type Gaussia luciferase without the signal peptide” value [2] was 0.896 and the “Activity of mutant relative to wild-type Gaussia luciferase without the signal peptide” value [3] was 0.654.

B4: K66N H79K E102D E110P L124M: Gaussia luciferase mutant (protein)
chain: MGVKVLFALICIAVAEAKPTENNEDFNIVAVASNFATTDLDADRGKLPGKKLPLEVLKEMEANARNAGCTRGCLICLSKIKCTPKMKKFIPGRCHTYEGDKDSAQGGIGPAIVDIPEIPGFKDMEPMEQFIAQVDLCVDCTTGCLKGLANVQCSDLLKKWLPQRCATFASKIQGQVDKIKGAGGD
modifications: SIGNAL (1)..(17)
notes: Gaussia luciferase mutant
For B4, the “Activity of mutant relative to wild-type Gaussia luciferase without the signal peptide” value [1] was 0.751, the “Activity of mutant relative to wild-type Gaussia luciferase without the signal peptide” value [2] was 0.404 and the “Activity of mutant relative to wild-type Gaussia luciferase without the signal peptide” value [3] was 1.554.

B5: H79K P84L V138D: Gaussia luciferase mutant (protein)
chain: MGVKVLFALICIAVAEAKPTENNEDFNIVAVASNFATTDLDADRGKLPGKKLPLEVLKEMEANARKAGCTRGCLICLSKIKCTLKMKKFIPGRCHTYEGDKESAQGGIGEAIVDIPEIPGFKDLEPMEQFIAQVDLCDDCTTGCLKGLANVQCSDLLKKWLPQRCATFASKIQGQVDKIKGAGGD
modifications: SIGNAL (1)..(17)
notes: Gaussia luciferase mutant
In the case of B5, the “Activity of mutant relative to wild-type Gaussia luciferase without the signal peptide” value [1] is reported as 0.068, the “Activity of mutant relative to wild-type Gaussia luciferase without the signal peptide” value [2] is reported as 0.936 and the “Activity of mutant relative to wild-type Gaussia luciferase without the signal peptide” value [3] is reported as 0.094.

B6: K66N E102A S103T A104G E110G D123N L124M V138D K180: Gaussia luciferase mutant (protein)
chain: MGVKVLFALICIAVAEAKPTENNEDFNIVAVASNFATTDLDADRGKLPGKKLPLEVLKEMEANARNAGCTRGCLICLSHIKCTPKMKKFIPGRCHTYEGDKATGQGGIGGAIVDIPEIPGFKNMEPMEQFIAQVDLCDDCTTGCLKGLANVQCSDLLKKWLPQRCATFASKIQGQVDKIKGAGGD
With B6 the “Activity of mutant relative to wild-type Gaussia luciferase without the signal peptide” value [1] was 1.880, the “Activity of mutant relative to wild-type Gaussia luciferase without the signal peptide” value [2] was 6.874 and the “Activity of mutant relative to wild-type Gaussia luciferase without the signal peptide” value [3] was 0.945.

B7: K66N H79K P84K E102K S103I E110P L124M: Gaussia luciferase mutant (protein)
chain: MGVKVLFALICIAVAEAKPTENNEDFNIVAVASNFATTDLDADRGKLPGKKLPLEVLKEMEANARNAGCTRGCLICLSKIKCTKKMKKFIPGRCHTYEGDKKIAQGGIGPAIVDIPEIPGFKDMEPMEQFIAQVDLCVDCTTGCLKGLANVQCSDLLKKWLPQRCATFASKIQGQVDKIKGAGGD
modifications: SIGNAL (1)..(17)
notes: Gaussia luciferase mutant
For B7, the “Activity of mutant relative to wild-type Gaussia luciferase without the signal peptide” value [1] was 1.118, the “Activity of mutant relative to wild-type Gaussia luciferase without the signal peptide” value [2] was 1.728 and the “Activity of mutant relative to wild-type Gaussia luciferase without the signal peptide” value [3] was 0.755.

B8: K66N P84L E102A S103I A104G E110P D123N L124M V138D: Gaussia luciferase mutant (protein)
chain: MGVKVLFALICIAVAEAKPTENNEDFNIVAVASNFATTDLDADRGKLPGKKLPLEVLKEMEANARNAGCTRGCLICLSHIKCTLKMKKFIPGRCHTYEGDKAIGQGGIGPAIVDIPEIPGFKNMEPMEQFIAQVDLCDDCTTGCLKGLANVQCSDLLKKWLPQRCATFASKIQGQVDKIKGAGGD
modifications: SIGNAL (1)..(17)
notes: Gaussia luciferase mutant
With B8 the “Activity of mutant relative to wild-type Gaussia luciferase without the signal peptide” value [1] was 0.041, the “Activity of mutant relative to wild-type Gaussia luciferase without the signal peptide” value [2] was 5.207 and the “Activity of mutant relative to wild-type Gaussia luciferase without the signal peptide” value [3] was 0.513.

B9: K66N E102D S103T E110G L124M V138E: Gaussia luciferase mutant (protein)
chain: MGVKVLFALICIAVAEAKPTENNEDFNIVAVASNFATTDLDADRGKLPGKKLPLEVLKEMEANARNAGCTRGCLICLSHIKCTPKMKKFIPGRCHTYEGDKDTAQGGIGGAIVDIPEIPGFKDMEPMEQFIAQVDLCEDCTTGCLKGLANVQCSDLLKKWLPQRCATFASKIQGQVDKIKGAGGD
modifications: SIGNAL (1)..(17)
notes: Gaussia luciferase mutant
With B9 the “Activity of mutant relative to wild-type Gaussia luciferase without the signal peptide” value [1] was 0.471, the “Activity of mutant relative to wild-type Gaussia luciferase without the signal peptide” value [2] was 0.794 and the “Activity of mutant relative to wild-type Gaussia luciferase without the signal peptide” value [3] was 0.134.

B10: I10T C11S A13D A15I E16R A17S: Gaussia luciferase mutant (protein)
chain: MGVKVLFALTSIDVIRSKPTENNEDFNIVAVASNFATTDLDADRGKLPGKKLPLEVLKEMEANARKAGCTRGCLICLSHIKCTPKMKKFIPGRCHTYEGDKESAQGGIGEAIVDIPEIPGFKDLEPMEQFIAQVDLCVDCTTGCLKGLANVQCSDLLKKWLPQRCATFASKIQGQVDKIKGAGGD
modifications: SIGNAL (1)..(17)
notes: Gaussia luciferase mutant
In the case of B10, the “Activity of mutant relative to wild-type Gaussia luciferase without the signal peptide” value [1] is reported as 0.116, the “Activity of mutant relative to wild-type Gaussia luciferase without the signal peptide” value [2] is reported as 0.086 and the “Activity of mutant relative to wild-type Gaussia luciferase without the signal peptide” value [3] is reported as 0.071.

B11: K66N H79K P84A E102E S103I D123N L124M V138E K159N I179*: Gaussia luciferase mutant (protein)
chain: MGVKVLFALICIAVAEAKPTENNEDFNIVAVASNFATTDLDADRGKLPGKKLPLEVLKEMEANARNAGCTRGCLICLSKIKCTAKMKKFIPGRCHTYEGDKEIAQGGIGEAIVDIPEIPGFKNMEPMEQFIAQVDLCEDCTTGCLKGLANVQCSDLLKNWLPQRCATFASKIQGQVDKKGAGGD
modifications: SIGNAL (1)..(17)
notes: Gaussia luciferase mutant
For B11, the “Activity of mutant relative to wild-type Gaussia luciferase without the signal peptide” value [1] was 0.001, the “Activity of mutant relative to wild-type Gaussia luciferase without the signal peptide” value [2] was 0.009 and the “Activity of mutant relative to wild-type Gaussia luciferase without the signal peptide” value [3] was 0.000.
